# Reference: article PMC12486813
# Target: FcγRI (CD64) (UniProt P12314)
# Assay: BLI; binding-dissociation kinetics of FcγRI (CD64) with the antibody; who was immobilised not stated for this experiment; KD is the average of two independent experiments
# Chain of UniProt P12314 (P12314 16-374): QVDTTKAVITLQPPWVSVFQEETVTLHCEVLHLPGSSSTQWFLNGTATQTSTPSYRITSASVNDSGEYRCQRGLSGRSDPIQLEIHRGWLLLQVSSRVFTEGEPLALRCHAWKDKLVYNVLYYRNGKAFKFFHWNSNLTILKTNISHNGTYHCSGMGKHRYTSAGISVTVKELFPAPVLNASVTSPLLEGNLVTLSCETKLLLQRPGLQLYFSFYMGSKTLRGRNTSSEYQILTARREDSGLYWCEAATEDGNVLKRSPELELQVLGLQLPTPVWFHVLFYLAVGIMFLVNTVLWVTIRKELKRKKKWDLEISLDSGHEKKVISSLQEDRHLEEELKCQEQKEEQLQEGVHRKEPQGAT
substance,measurement,value
5C8 (LALA) (antibody),Kd,4.82 µM
